# Measurements published in patent US20190359687A1 (Bayer, published 2019).
# T1: human glycophorin A on human red blood cells or red blood cell membranes (human, UniProt P02724 20-150)
# T1 construct: whole, on cells; also called hRBC; human RBC membranes
# T1 sequence (looked up): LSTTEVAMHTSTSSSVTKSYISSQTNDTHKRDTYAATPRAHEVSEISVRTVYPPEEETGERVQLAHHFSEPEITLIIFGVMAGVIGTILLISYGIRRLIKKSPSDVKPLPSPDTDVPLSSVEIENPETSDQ
# T2: native human glycophorin A protein (human, UniProt P02724 20-150)
# T2 construct: mature; also called Hu-nat GPA
# T2 sequence (looked up): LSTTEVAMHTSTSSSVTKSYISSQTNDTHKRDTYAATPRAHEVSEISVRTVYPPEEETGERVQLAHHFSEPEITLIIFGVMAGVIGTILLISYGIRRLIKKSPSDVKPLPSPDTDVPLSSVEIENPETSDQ
# T3: recombinant human glycophorin A ectodomain protein (human, UniProt P02724 20-91)
# T3 construct: 72 amino acids of the extracellular region; also called Hu-rec GPA
# T3 sequence: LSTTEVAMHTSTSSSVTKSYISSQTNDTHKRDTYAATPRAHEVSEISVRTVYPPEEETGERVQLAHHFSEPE
# Columns and labels:
# [1] = target: T1, human glycophorin A on human red blood …; test: Fab on intact human RBC, unbound Fab by ELISA; 5 min after 200-fold dilution
# [2] = target: T1, human glycophorin A on human red blood …; test: Fab on intact human RBC, unbound Fab by ELISA; 0 min after 200-fold dilution
# Method: The binding of affinity matured Fab antibodies to intact human RBC was also measured. Human RBC were isolated from fresh anti-coagulated normal human blood by centrifugation through a ficol gradient and washing in PBS buffer. RBC diluted to 1/10th of normal hematocrit were incubated with purified Fab antibodies at a final concentration of 7 ug/ml for 1 hour at room temperature on a rotating shaker after which a sample was taken and the RBC were pelleted by centrifugation and the supernatant was collected. The remaining RBC suspension was diluted 200-fold in PBS buffer and incubated for a total of 2 hours at room temperature on a rotating shaker and samples were removed at 0, 5 min, 20 min, 1 h and 2 h and the RBC pelleted and the supernatant collected. The amount of Fab in the supernatants was then measured using an ELISA assay and the results used to calculate the percentage of the input Fab that was bound to the RBC. […] The percentage that remains bound after 200-fold dilution of the RBC suspension is an indication of the overall strength of the binding to human RBC.
# [3] = target: T4, Cynomolgus monkey glycophorin A on Cynomolgus monkey red blood cells or red blood cell membranes (Cynomolgus monkey); test: Fab on intact cyno RBC, unbound Fab by ELISA; 0 min after 200-fold dilution
# T4 construct: whole, on cells; also called Cyno RBC; Cynomolgus monkey RBC membranes
# [4] = target: T4, Cynomolgus monkey glycophorin A on …; test: Fab on intact cyno RBC, unbound Fab by ELISA; 20 min after 200-fold dilution
# [5] = target: T1, human glycophorin A on human red blood …; test: SPR (Biacore), Fab on human RBC membranes; * not accurate, instrument limit
# Method: (§1) Kinetic analysis of the antibody binding to human red blood cell membranes was also performed using surface plasmon resonance (SPR) using a Biacore instrument. In this assay membranes prepared from human red blood cells were attached to a L1 sensor matrix and antibodies were flowed over the RBC membranes.
# (§2) The binding kinetics of the affinity matured Fab antibodies was also measured.
# [6] = target: T4, Cynomolgus monkey glycophorin A on …; test: Fab on intact cyno RBC, unbound Fab by ELISA; 60 min after 200-fold dilution
# Method: (§3) The binding of affinity matured Fab antibodies to intact Cynomolgus monkey RBC was measured. Cynomolgus monkey RBC were isolated from fresh anti-coagulated blood by centrifugation through a ficol gradient and washing in PBS buffer. RBC diluted to 1/10th of normal hematocrit were incubated with the Fab at a final concentration of 7 ug/ml for 1 hour at room temperature on a rotating shaker after which a sample was taken and the RBC were pelleted by centrifugation and the supernatant was collected. The remaining RBC suspension was diluted 200-fold in PBS buffer and incubated for a total of 2 hours at room temperature on a rotating shaker and samples were removed at 0, 5 min, 20 min, 1 h and 2 h and the RBC pelleted and the supernatant collected. […] The amount of Fab in the supernatants was then measured using an ELISA assay and the results used to calculate the percentage of the input Fab that was bound to the RBC.
# [7] = target: T4, Cynomolgus monkey glycophorin A on …; test: Fab 7 ug/ml on intact cyno RBC, unbound Fab by ELISA; pre-dilution
# Method: as §3
# [8] = target: T4, Cynomolgus monkey glycophorin A on …; test: Fab on intact cyno RBC, unbound Fab by ELISA; 120 min after 200-fold dilution
# [9] = target: T4, Cynomolgus monkey glycophorin A on …; test: Fab on intact cyno RBC, unbound Fab by ELISA; 5 min after 200-fold dilution
# [10] = target: T1, human glycophorin A on human red blood …; test: SPR (Biacore), Fab on human RBC membranes; T½ = 0.69/kd; * not accurate
# Method: as §1, §2
# [11] = target: T1, human glycophorin A on human red blood …; test: SPR (Biacore), Fab over human RBC membranes, 1:1 fit; * slight deviation possible
# Method: as §1
# [12] = target: T1, human glycophorin A on human red blood …; test: ELISA, Fab on coated human RBC membranes
# [13] = target: T2, native human glycophorin A protein; test: ELISA, Fab on coated native human GPA
# [14] = target: T1, human glycophorin A on human red blood …; test: SPR (Biacore), Fab on human RBC membranes; T½ = 0.69/kd
# Method: as §1, §2
# [15] = target: T5, Cynomolgus monkey recombinant glycophorin A ectodomain (Cynomolgus monkey); test: ELISA, Fab on coated recombinant cyno GPA ectodomain
# T5 construct: extracellular domain
# [16] = target: T4, Cynomolgus monkey glycophorin A on …; test: ELISA, Fab on coated cyno RBC membranes
# [17] = target: T3, recombinant human glycophorin A …; test: ELISA, Fab on coated recombinant human GPA ectodomain
percentage of input antibody bound [1] [%],percentage of input antibody bound [2] [%],percentage of input antibody bound [3] [%],percentage of input antibody bound [4] [%],Kd [5] [nM],koff [5] [s⁻¹],percentage of input antibody bound [6] [%],percentage of input antibody bound [7] [%],percentage of input antibody bound [8] [%],percentage of input antibody bound [9] [%],Estimated T½ [10] [days],Kd [11] [nM],koff [11] [s⁻¹],kon [11] [M⁻¹ s⁻¹],binding in ELISA relative to parental Fab [12],binding in ELISA relative to parental Fab [13],Estimated T½ [14] [days],binding in ELISA relative to parental Fab [15],binding in ELISA relative to parental Fab [16],binding in ELISA relative to parental Fab [17],Binder
89,88,87,90,< 0.00233,< 2e-05,87,94,85,90,596,–,–,–,–,–,–,–,–,–,"TPP-7790, affinity matured 6C12 Fab (Fab, V domains shown, Tested as Fab with a 6xHIS tag) VH: EVQLVQSGAEVKKPGASVKVSCKASGYTFTTYAIHWVRQAPGQGLEWMGYINPSSGYTRYNPKFKHRVTMTRDKSTSTAYMELRSLRSDDTAVYYCWTGTRDYWGQGTTVTVSS VL: DIQLTQSPSFLSASVGDRVTITCRASSSVRYIYWFQQKPGKAPKLLIYATSFLQSGVPSRFSGSGSGTEYTLTISSLQPEDFATYYCHQRNSFPYTFGQGTKLEIK"
28,82,–,–,–,–,–,–,–,–,–,0.9,0.0034,4e+06,93.5 relative to parental Fab,12.9 relative to parental Fab,0.00139,1.4 relative to parental Fab,2.5 relative to parental Fab,7.2 relative to parental Fab,"TPP-5906, humanized and germlined 6C12 Fab; VL: (S24R, A26S, S49A, P54Q, F95Y); VH: (I48M, D56G, D66G, L70M, T72R) (Fab, V domains shown, The text says that a 6xHIS tag is present on the Fabs in the peptide ELISA; it is not in the printed chains) VH: EVQLVQSGAEVKKPGASVKVSCKASGYTFTTYTIHWVRQAPGQGLEWMGYINPSSGYTRYNPKFKGRVTMTRDKSTSTAYMELRSLRSDDTAVYYCQTGTRDYWGQGTTVTVSS VL: DIQLTQSPSFLSASVGDRVTITCRASSSVSYIYWFQQKPGKAPKLLIYATSTLQSGVPSRFSGSGSGTEYTLTISSLQPEDFATYYCHQRNSFPYTFGQGTKLEIKR"
